The values that follow come from the RNAGym collection of RNA variant scans (doi:10.7554/elife.80360).

The labels stand for the following.
B1: CPEB3 Ribozyme (parent)
chain: GGGGGCCACAGCAGAAGCGUUCACGUCGCGGCCCCUGUCAGAUUCUGGUGAAUCUGCGAAUUCUGCUGU

Variants of B1 are the subject of this data set. Briefly: self-cleavage, relative activity (ratio to wild type); higher = more cleavage; co-transcriptional.
Consider GGGGGCCACUGCAGAAGCGUUCACGUCGCGGCCCCUGUCAGAUUCUGGUGAAUCUGCGAAUUCUGCGGU, for which the self-cleavage worked out at 1.01.

As for GGGGGCCACUGCAGAAGCGUUCACGUCGCGGCCCCUGUCAGAUUCUGGUGAAUCUGCGAAUUCUGCAGU, the self-cleavage amounted to 0.997.

As for GGGGGCCACAACAGAAGCGUUCACGUCGCGGCCACUGUCAGAUUCUGGUGAAUCUGCGAAUUCUGCUGU, the self-cleavage came to 0.715.

Turning to GGGGGCCACAACAGAAGCGUUCACGUCGCGGCCGCUGUCAGAUUCUGGUGAAUCUGCGAAUUCUGCUGU, the self-cleavage stood at 0.695.

As for GGGGGCCACUGCAGAAGCGUUCACGUCGCGGCCCCUGUCAGAUUCUGGUGAAUCUGCGAAUUCUGCUGC, the self-cleavage was determined as 1.07.

For the variant GGGGGCCACUGCAGAAGCGUUCACGUCGCGGCCCCUGUCAGAUUCUGGUGAAUCUGCGAAUUCUGCUGG, the self-cleavage was 1.06.

Consider GGGGGCCACUGCAGAAGCGUUCACGUCGCGGCCCCUGUCAGAUUCUGGUGAAUCCGCGAAUUCUGCUGU, for which the self-cleavage stood at 0.9.

On to GGGGGCCACUGCAGAAGCGUUCACGUCGCGGCCCCUGUCAGAAUCUGGUGAAUCUGCGAAUUCUGCUGU, for which the self-cleavage stood at 0.941.

For the variant GGGGGCCACUGCAGAAGCGUUCACGUCGCGGCCCCUGUCAGACUCUGGUGAAUCUGCGAAUUCUGCUGU, the self-cleavage came out at 0.975.

In the case of GGGGGCCACUGCAGAAGCGUUCACGUCGCGGCCCCUGUCAGAGUCUGGUGAAUCUGCGAAUUCUGCUGU, the self-cleavage worked out at 0.831.

As for GGGGGCCACUGCAGAAGCGUUCACGUCGCGGCCCCUGUCAGAUUCUGGUGAAUCUGCGAAGUCUGCUGU, the self-cleavage came to 0.78.

As for GGGGGCCACUGCAGAAGCGUUCACGUCGCGGCCCCUGUCAGAUUCUGGUGAAUCUGCGAAAUCUGCUGU, the self-cleavage was 0.911.

As for GGGGGCCACAACAGAAGCGUUCACGUCGCGGUCCCUGUCAGAUUCUGGUGAAUCUGCGAAUUCUGCUGU, the self-cleavage was 0.95.

With GGGGGCCACUGCAGAAGCGUUCACGUCGCGGCCCCUGUCAGAUUCUGGUGAAUCUGCGAAUACUGCUGU, the self-cleavage came out at 0.882.

For the variant GGGGGCCACUGCAGAAGCGUUCACGUCGCGGCCCCUGUCAGAUUCUGGUGAAUCUGCGAAUCCUGCUGU, the self-cleavage came to 0.757.

Turning to GGGGGCCACAACAGAAGCGUUCACGUCGCGGCCCCUGUCAGAUUCUGGUGAAUCCGCGAAUUCUGCUGU, the self-cleavage was determined as 0.493.

Turning to GGGGGCCACAACAGAAGCGUUCACGUCGCGGCCCCUGUCAGAUUCUGGUGAGUCUGCGAAUUCUGCUGU, the self-cleavage worked out at 0.928.

For GGGGGCCACAACAGAAGCAUUCACGUCGCGGCCCCUGUCAGAUUCUGGUGAAUCUGCGAAUUCUGCUGU, the self-cleavage stood at 0.103.

Regarding GGGGGCCACAACAGAAGCGUUCACGUCGCGGCCCCUUUCAGAUUCUGGUGAAUCUGCGAAUUCUGCUGU, the self-cleavage was determined as 0.156.

Regarding GGGGGCCACAACAGAAGCGUUCACGUCGCGGCCCCUGUCAGAUUCUGGUGAAUCUGGGAAUUCUGCUGU, the self-cleavage was 0.262.

Turning to GGGGGCCACUGCAGAAGCGUUCACGUCGCGGCCCCUGUCAGAUUCUGGUGAAUCUGCAAAUUCUGCUGU, the self-cleavage was 0.975.

Regarding GGGGGCCACAACAGAAGCGUUCACGUCGCGGCCCCUGUCAGAUACUGGUGAAUCUGCGAAUUCUGCUGU, the self-cleavage came to 0.697.

On to GGGGGCCACAACAGAAGCGUUCACGUCGCGGCCCCUGUCAGAUUCUGGUGAAUCUGCGAAUUCUGAUGU, for which the self-cleavage stood at 0.818.

GGGGGCCACAACAGAAGCGUUCACGUCGCGGCCCCUGUCAGAUUCUGGUGAAUCUGCGAAUUCUGGUGU: the self-cleavage was 0.917.

For GGGGGCCACAACGGAAGCGUUCACGUCGCGGCCCCUGUCAGAUUCUGGUGAAUCUGCGAAUUCUGCUGU, the self-cleavage was 0.184.

For the variant GGGGGCCACAACCGAAGCGUUCACGUCGCGGCCCCUGUCAGAUUCUGGUGAAUCUGCGAAUUCUGCUGU, the self-cleavage amounted to 0.182.

For GGGGGCCACAACAGAAGCGUUCACGUCGCGGCCCCUGUCAGAUUCUGGUGCAUCUGCGAAUUCUGCUGU, the self-cleavage came to 0.757.

Regarding GGGGGCCACUGCAGAAGCGUUCACGUCGCGGCCCCUGUCAGAUUCUGGUGAAUCUGCGAAUUCUGCUAU, the self-cleavage is 1.05.

With GGGGGCCACUGCAGAAGCGUUCACGUCGCGGCCCCUGUCAGAUUCUGGUGAAUCUGCGAAUUCUGCUUU, the self-cleavage was 0.982.

On to GGGGGCCACAACAGAAGCGUGCACGUCGCGGCCCCUGUCAGAUUCUGGUGAAUCUGCGAAUUCUGCUGU, for which the self-cleavage is 0.285.

For GGGGGCCACAACAGAAGCGUUCACGUCGCGGCCCCUGUCAGAUUCUGGUGAAUCUGCGAAUUUUGCUGU, the self-cleavage stood at 0.707.

Turning to GGGGGCCACUGCAGAAGCGUUCACGUCGCGGCCCCUGUCAGAUUCCGGUGAAUCUGCGAAUUCUGCUGU, the self-cleavage turned out to be 0.983.

Take GGGGGCCACUGCAGAAGCGUUCACGUCGCGGCCCCUGUCAGAUUCAGGUGAAUCUGCGAAUUCUGCUGU: the self-cleavage amounted to 0.954.

As for GGGGGCCACAACAGAAGCGUUCACGUCGCGGCCCCUGUCAGAUUCUGGUGAAUCUCCGAAUUCUGCUGU, the self-cleavage is 0.437.

Turning to GGGGGCCACUGCAGAAGCGUUCACGGCGCGGCCCCUGUCAGAUUCUGGUGAAUCUGCGAAUUCUGCUGU, the self-cleavage turned out to be 0.994.

GGGGGCCACAACAGAAGCGUUCACGUCGCGGCCCCUGUCAGAUUAUGGUGAAUCUGCGAAUUCUGCUGU: the self-cleavage is 0.821.

On to GGGGGCCACAACAGAAGCGUUCACGUCGCGGCCCCUGUCAGAUUUUGGUGAAUCUGCGAAUUCUGCUGU, for which the self-cleavage was 0.906.

For GGGGGCCACAACAGAAGCGUUCACAUCGCGGCCCCUGUCAGAUUCUGGUGAAUCUGCGAAUUCUGCUGU, the self-cleavage is 0.126.

As to GGGGGCCACAACAGAAGCGAUCACGUCGCGGCCCCUGUCAGAUUCUGGUGAAUCUGCGAAUUCUGCUGU, the self-cleavage is 0.157.

With GGGGGCCACAACAGAAGCGUUCACGUCGCGGCCCCUGUCAGAUUCUGGUGAAUCUGCGAAUUCUGCUGC, the self-cleavage was 1.03.

For the variant GGGGGCCACAACAGAAGCGUUGACGUCGCGGCCCCUGUCAGAUUCUGGUGAAUCUGCGAAUUCUGCUGU, the self-cleavage came out at 0.119.

For GGGGGCCACAACAUAAGCGUUCACGUCGCGGCCCCUGUCAGAUUCUGGUGAAUCUGCGAAUUCUGCUGU, the self-cleavage is 0.126.

Take GGGGGCCACAACAGAAGCGUUCACGUCGCGGCCCCUGUCAGAUUCUGGUAAAUCUGCGAAUUCUGCUGU: the self-cleavage came out at 0.852.

Turning to GGGGGCCACAACAGAAGCGUUCACGUCGCGACCCCUGUCAGAUUCUGGUGAAUCUGCGAAUUCUGCUGU, the self-cleavage turned out to be 0.838.

With GGGGGCCACUGCAGAAGCGUUCACGUCGCGGCCCCUGUCAGAUUCUGGUGAACCUGCGAAUUCUGCUGU, the self-cleavage was determined as 0.871.

With GGGGGCCACAAUAGAAGCGUUCACGUCGCGGCCCCUGUCAGAUUCUGGUGAAUCUGCGAAUUCUGCUGU, the self-cleavage was 0.549.

For the variant GGGGGCCACAACAGAAGCGUUCACGGCGCGGCCCCUGUCAGAUUCUGGUGAAUCUGCGAAUUCUGCUGU, the self-cleavage came to 0.734.

Take GGGGGCCACAACAGAAGCGUUCACGCCGCGGCCCCUGUCAGAUUCUGGUGAAUCUGCGAAUUCUGCUGU: the self-cleavage was determined as 0.863.

Consider GGGGGCCACAACAGAAGCGUUCACGUCGCGGCCCCUGUCAGAUUCUGGUGAAACUGCGAAUUCUGCUGU, for which the self-cleavage was determined as 0.533.

Consider GGGGGCCACUGCAGAAGCGUUCACGUCGCGGCCCCUGUCAGAUACUGGUGAAUCUGCGAAUUCUGCUGU, for which the self-cleavage came to 0.967.

As for GGGGGCCACAACAGAAGCGUUCACGUCGCGGCCCCUGUCAGAUUCUGGUGAAUCUGCGCAUUCUGCUGU, the self-cleavage was found to be 0.3.

For the variant GGGGGCCACAACAGAAGCGUUCACGUCGCGGCCCCUGUCAGAUUCUGGUGAAUCUGCGGAUUCUGCUGU, the self-cleavage amounted to 0.859.

Consider GGGGGCCACUGCAGAAGCGUUCACGUCGCGGCCCCGGUCAGAUUCUGGUGAAUCUGCGAAUUCUGCUGU, for which the self-cleavage is 0.195.

In the case of GGGGGCCACUGCAGAAGCGUUCACGUCGCGGCCCCCGUCAGAUUCUGGUGAAUCUGCGAAUUCUGCUGU, the self-cleavage was found to be 0.924.

Consider GGGGGCCACAACAGAAGCGUUCACGUCGCGGCCCCUGUCAGAUUCUGGUGAAUCUGCGAAUGCUGCUGU, for which the self-cleavage is 0.331.

In the case of GGGGGCCACAACAGAAGCGUUCACGUCGCGGCCCCUGUCAGAUUCUGGUGAAUCUGCGAAUUCUGCAGU, the self-cleavage came to 0.934.

Take GGGGGCCACAACAGCAGCGUUCACGUCGCGGCCCCUGUCAGAUUCUGGUGAAUCUGCGAAUUCUGCUGU: the self-cleavage came out at 0.849.

Consider GGGGGCCACAACAGAAGCGUUCACGUCGCGGCCCCUGUCAGAUUCUGGUGAAUCUGCGACUUCUGCUGU, for which the self-cleavage came out at 0.205.

For GGGGGCCACUGCAGAAGCGUUCACGUCGCGGCCCCUGUCAGAUUCUGGUGAAUCUGCGAAUUCAGCUGU, the self-cleavage came to 0.8.

Take GGGGGCCACUGCAGAAGCGUUCACGUCGCGGCCCCUGUCAGAUUCUGGUGAAUCUGCGAAUUCGGCUGU: the self-cleavage worked out at 0.897.

GGGGGCCACAACAGAAGCGUUCACGUCGCGGCCCCUGUCAGAUUCUGAUGAAUCUGCGAAUUCUGCUGU: the self-cleavage worked out at 0.906.

On to GGGGGCCACAACAGAAGCGUUCACGUCGCGGCCCCUGUCAGACUCUGGUGAAUCUGCGAAUUCUGCUGU, for which the self-cleavage worked out at 0.658.

As to GGGGGCCACAACAGAAGCGUUCACGUCGCGGCCCCUGUCAGAAUCUGGUGAAUCUGCGAAUUCUGCUGU, the self-cleavage was 0.442.

Turning to GGGGGCCACAACAGAAGCGUUCACGUCGCGGCCCCUGUCAGAGUCUGGUGAAUCUGCGAAUUCUGCUGU, the self-cleavage was 0.4.

As to GGGGGCCACUGCAGAAGCGUUCACGUCGCGGCCCCUGUCAGAUUCUGGUGAAUCUGCGAAUUCUACUGU, the self-cleavage was 0.842.

In the case of GGGGGCCACUGCAGAAGCGUUCACGUCGCGGCCCCUGUCAGAUUCUGGUGAAUCUGCGAAUUCUUCUGU, the self-cleavage is 0.796.

GGGGGCCACAACAGAAGCGUUCACGUCGCGGCCCCUGUCUGAUUCUGGUGAAUCUGCGAAUUCUGCUGU: the self-cleavage turned out to be 0.357.

As for GGGGGCCACAACAGAAGCGUUCACGUCGCGGCCCCUGUCGGAUUCUGGUGAAUCUGCGAAUUCUGCUGU, the self-cleavage is 0.726.

As to GGGGGCCACAACAGAAGCGUUCACGUCGCGGCACCUGUCAGAUUCUGGUGAAUCUGCGAAUUCUGCUGU, the self-cleavage was 0.853.

As for GGGGGCCACAACAGAAGCGUUCACGUUGCGGCCCCUGUCAGAUUCUGGUGAAUCUGCGAAUUCUGCUGU, the self-cleavage was determined as 0.107.

For the variant GGGGGCCACAACAGAAGCGUUCACGUAGCGGCCCCUGUCAGAUUCUGGUGAAUCUGCGAAUUCUGCUGU, the self-cleavage was found to be 0.2.

For the variant GGGGGCCACAACAGAAGCGUUCACGUGGCGGCCCCUGUCAGAUUCUGGUGAAUCUGCGAAUUCUGCUGU, the self-cleavage stood at 0.139.

For GGGGGCCACAACAGAAGCGUUCACGUCGCGGCCCCUGUCAGAUUCUGGCGAAUCUGCGAAUUCUGCUGU, the self-cleavage came to 0.903.

Take GGGGGCCACAACAGAAGCGUUCACGUCGCGGCCCGUGUCAGAUUCUGGUGAAUCUGCGAAUUCUGCUGU: the self-cleavage amounted to 0.352.

With GGGGGCCACAACAGAAGCGUUCACGUCUCGGCCCCUGUCAGAUUCUGGUGAAUCUGCGAAUUCUGCUGU, the self-cleavage is 0.171.

Regarding GGGGGCCACAACAGAAGCGUUCACGUCACGGCCCCUGUCAGAUUCUGGUGAAUCUGCGAAUUCUGCUGU, the self-cleavage amounted to 0.16.

In the case of GGGGGCCACAACAGAAGCGUUCACGUCCCGGCCCCUGUCAGAUUCUGGUGAAUCUGCGAAUUCUGCUGU, the self-cleavage is 0.157.

GGGGGCCACAACAGAAGCGUUCACGUCGCGGCCCCUGUCAGAUUCUGGUGAAUCUGCGAAUUCUCCUGU: the self-cleavage came out at 0.557.
